Assay results as given in the nanobody polyreactivity screen of Harvey et al. (2022).

Assay: yeast display, Sf9 membrane polyspecificity reagent, FACS + sequencing; frameworks hold sequencing errors
How it was run: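 Galactose-induced (36–48 hours) yeast carrying a synthetic nanobody display library were exposed to 10% biotinylated, detergent-solubilized Sf9 membrane reagent at 4 °C for 1 hour. FACS followed streptavidin microbead enrichment, using low and high (top ~1%) gates for expression (anti-HA) and reagent binding (streptavidin). Colony PCR, MiSeq 2 × 250 sequencing and CDR-length filtering followed. Labels for polyreactivity reflect the gate of origin.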

Sequence | polyreactivity (PSR sort gate)
QVQLVESVGGLVQAGGSLRLICAASGLTFEWYTMGWYRQATGNERELVAVITVSGSSTYYADSVKGRFTISRDNAKNTVYLQMNSLKPEDTAVYYCARKTYYTGDFLGREYGYWGQGTQVTVSS | low polyreactivity
QVQLVESGGGLVQAGGSLRLSCAASGSIFRVYAMGWYRQAPGKERELVAVITWTGGITYYADSVKGRFTISRDNAKNTVYLQMNSLKPEDTAVYYCNADLLTFAIKAPTGFYYWGQGTQVTVSS | high polyreactivity
QVQLQGSGGGLAQAGDSLRLSSEASGTIFSEYNNGLVSPGAGQRTRTCCRYWCWGNTYYPDSAKGRFTTSLDNAKNTVYLQKNSLKPEDTEVYYCAFNRPYPSRHIYRGQGTQVTVSS | high polyreactivity
QVQLVESGGGLVQAGGSLRLSCAASGFIFRYNAMGWYRQAPGKESELVAAISSSGTTNYADSVKGRFTISRDNAKNTVYLQMNSLKPEDTAVYYCAARRSYARRFKNSMEYWGEGTQVTVSS | high polyreactivity
QVQLVESGGGLVQAGGTLRLICAASGLTFGRYAMGWYRQAPGKERELVASISQRGGSTYYADSVKGRFTISRDNAKNTVYLQMNSLKPEDTAVYYCAARRYYRGEYDYWGQGTQVTVSS | low polyreactivity
QVQLVESGGGLVQAGGSLRLSCAASGSTFVWYAMVWYRQAPGKEREFVATISWSDGSTYYADSVKGRFTISRDNAKNTVYLLMNSLKPEVTAVYYCASDVDRFFSYKYDYWGQGTQVTVSS | low polyreactivity
QVQLVESGGGLVQAGGSLRLSCAASGYTFGTYAMGWYRQAPGKERELVAAITTNVGSTYYADSVKGRFTISRDNAKNTVYLQMNSLKPEDTAVYYCAADVGWRFGDITYWAYDYWGQGTQVTVSS | low polyreactivity
QVQLVESGGGLVQAGGSLRLSCAASGSIFYPNAMGWYRQAPGKERELVAAISIGGGRTYYADSVKGRFTISRDNAKNTVYLQMNSLKPEDTAVYYCAATRVDSDDRTRFYYWGQGTQVTVSS | high polyreactivity
QVQLVESGGGLVQAGGSLRLSCAASGSISAAYAMGWYRQAPGKERELVADISSSGVSTYYADSVKGRFTISRDNAKNTVYLQMNSLKQEDTAVYYCAKNRVAGYRKYDYWGQGTQVTVSS | low polyreactivity
QVQLVESGGGLVQAGGSLRLSCAASGSTFGWNAMGWYRQAPGKERDLVAAITGGGSTYYADSVKGRFTISRDNAKNTVYLQMNSLKPEDSAVYYCEGDYWGQGTQVTVSS | low polyreactivity
QVQLGESGGGLVQAGGSLRLSCAASGYIFAYYAMGWSRQAPGKERELVAAISRSGGSTYYADSVKGRFTISRDNAKNTVYLEMISLKPEDTAVSYCAARSTGNYEREYNYWGQGTQVTVSS | high polyreactivity
QVQLVESGGGLVQAGGSLRLSCAASGRIFRTYAMGWYRQAPGKERELVAAIRSGGSTKYADSVKGRFTISRDNAKNTVYLQMNSLKPEDTAVYYCAAAVLGRYSAGDGYWGQGTQVTVSS | low polyreactivity
QDQLVESGGGLVQAGGSLRLSCAASARIFERYAKGWYRPPPGKEMELVAAISYRGGRTYYADSVKGRFTISRVNAKNTVYLQMNSLKPEDTAVYYCAAYTYFRDWAEYDYWGQGTQVTVSS | high polyreactivity
QVQLVESGGGLVQAGGSLRLSCAASGSTFKWYAMGWYRQAPGKERELVAAITVSGDSTYYADSVKGRFTISRDNAKNTVYLQMNSLKPEDTAVYYCAKDYQGITPYDYWGQGTQVTVSS | low polyreactivity
QVQLVESGGGLVQAGGSLRLSCAASGRIFSVYDMGWYRQAPGKERELVAAIDTSDGSTNYADSVTGRFTISRDNAKNTVYLQMNSLKPEDTAVYYCNATDSYVPFDYWGQGTQVTVSS | low polyreactivity
QVQLVESGGGLVQAGGSLRLSCAASGIIFTYYAMGWYRQAPGKERELVAGISSSGGITYADSVKGRFTISRDNAKNTVYLQMNSLKPEDTAVYYCAAESYGRSETEDDYWGQGTQVTVSS | low polyreactivity
QVQLVESGGGLVQAGGSLRLSSAASGSTFWYYAMGWYRQAPGKERELVAGITQSGGSTYYADSVKGRFTISRDNAKNTVYLQMNSLKPEDTAVYYCAKDGRVSGDFDYWGQGTQVTVSS | low polyreactivity
QVQLVESGGGLVQAGGSLRLSCAASGNIFYVYAMGWYRQAPGKERELVAVISRNDGSTYYADSVKGRFTISRDNAKNTVYLQMNSLKPEDTAVYYCNAEWYFWGQGTQVTVSS | low polyreactivity
QVQLVESGGGIVQAGGSLRLSCAASGRTFWRNTMGWYRQAPGKETELVAAINKPGGSTYYADSVKGRFTISRDNAKNTVYLQMNSLKPEDTAVYYCNALTYQGRHSARYDYWGQGTQVTVSS | high polyreactivity
QVQLVESGGGLVQAGGSLRLSCAASGSIFARYTMGWYRQAPGKERELVAAISTSGSRTYYADSVKGRFTISRDNAKNCVYLLMNSLKPEDTAVYYCNVAWIWGKYDYWGPGTQVTVSS | high polyreactivity
QDQLVESGGGLVQAGGSLRLSCAASGSILVRNARGWYRQAPGKERELVASIDSGTSTNYADSVKGRFTISRDNAKTTVYLQLNSLKPEDTAVYYCAADWYYLWGRYYFWGQGTQVTVSS | high polyreactivity
QVQHVESGGGLVQAGGSLRLSCAASGSIFTGNAMGWYRQAPGKERELVAAISSSGGSTYYADSVKGRFTISRDNAKNTVYLQMNSLKPEDTAVYYCAAYNYFLQYDYWGQGTQVTVSS | low polyreactivity
